According to patent US20140213513A1 (Sanofi, priority 2012, published 2014):
*1 amine or outer side, *2 acyl side, *3 side chain or, on linkers, in order; H or OH if unused. Where no end group is shown, it is not given here. Side-chain parts run from the residue outwards. [ ]: non-standard residue; d: D form. The star is where a group is joined. γGlu = O=C(O)[C@H](CCC(=O)[*:2])N[*:1]; Stearoyl = CCCCCCCCCCCCCCCCCC(=O)*; Palmitoyl = CCCCCCCCCCCCCCCC(=O)*; Aib = CC(C)(N)C(=O)O

T1: human GIP receptor (human, UniProt P48546 22-466)
T1 sequence (looked up): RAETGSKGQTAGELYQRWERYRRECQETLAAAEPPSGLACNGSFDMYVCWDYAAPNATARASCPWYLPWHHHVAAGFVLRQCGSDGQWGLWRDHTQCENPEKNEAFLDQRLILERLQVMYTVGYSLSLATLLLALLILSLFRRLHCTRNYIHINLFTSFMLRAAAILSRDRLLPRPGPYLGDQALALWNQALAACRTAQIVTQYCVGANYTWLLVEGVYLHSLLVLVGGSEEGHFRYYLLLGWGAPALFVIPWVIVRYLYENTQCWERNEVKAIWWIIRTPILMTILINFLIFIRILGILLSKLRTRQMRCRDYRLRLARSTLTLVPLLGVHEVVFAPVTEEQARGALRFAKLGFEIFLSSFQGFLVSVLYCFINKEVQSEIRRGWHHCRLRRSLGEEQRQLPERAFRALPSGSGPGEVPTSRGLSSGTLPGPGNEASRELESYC

B1: exendin-4 peptide analogue SEQ ID NO: 63 (peptide)
peptide: Y[Aib]EGTFTSDLSKQK([γGlu-Palmitoyl])DKRAAQDFIEWLKAGGPSSGAPPPS-NH2
modifications: N-terminus assumed
SMILES: CCCCCCCCCCCCCCCC(=O)N[C@@H](CCC(=O)NCCCC[C@H](NC(=O)[C@H](CCC(N)=O)NC(=O)[C@H](CCCCN)NC(=O)[C@H](CO)NC(=O)[C@H](CC(C)C)NC(=O)[C@H](CC(=O)O)NC(=O)[C@H](CO)NC(=O)[C@@H](NC(=O)[C@H](Cc1ccccc1)NC(=O)[C@@H](NC(=O)CNC(=O)[C@H](CCC(=O)O)NC(=O)C(C)(C)NC(=O)[C@@H](N)Cc1ccc(O)cc1)[C@@H](C)O)[C@@H](C)O)C(=O)N[C@@H](CC(=O)O)C(=O)N[C@@H](CCCCN)C(=O)N[C@@H](CCCNC(=N)N)C(=O)N[C@@H](C)C(=O)N[C@@H](C)C(=O)N[C@@H](CCC(N)=O)C(=O)N[C@@H](CC(=O)O)C(=O)N[C@@H](Cc1ccccc1)C(=O)N[C@H](C(=O)N[C@@H](CCC(=O)O)C(=O)N[C@@H](Cc1c[nH]c2ccccc12)C(=O)N[C@@H](CC(C)C)C(=O)N[C@@H](CCCCN)C(=O)N[C@@H](C)C(=O)NCC(=O)NCC(=O)N1CCC[C@H]1C(=O)N[C@@H](CO)C(=O)N[C@@H](CO)C(=O)NCC(=O)N[C@@H](C)C(=O)N1CCC[C@H]1C(=O)N1CCC[C@H]1C(=O)N1CCC[C@H]1C(=O)N[C@@H](CO)C(N)=O)[C@@H](C)CC)C(=O)O
B2: exendin-4 peptide analogue SEQ ID NO: 62 (peptide)
peptide: Y[Aib]EGTFTSDLSIQK([γGlu-Stearoyl])EEEAVKLFIEWLKAGGPSSGAPPPS-NH2
modifications: N-terminus assumed
SMILES: CCCCCCCCCCCCCCCCCC(=O)N[C@@H](CCC(=O)NCCCC[C@H](NC(=O)[C@H](CCC(N)=O)NC(=O)[C@@H](NC(=O)[C@H](CO)NC(=O)[C@H](CC(C)C)NC(=O)[C@H](CC(=O)O)NC(=O)[C@H](CO)NC(=O)[C@@H](NC(=O)[C@H](Cc1ccccc1)NC(=O)[C@@H](NC(=O)CNC(=O)[C@H](CCC(=O)O)NC(=O)C(C)(C)NC(=O)[C@@H](N)Cc1ccc(O)cc1)[C@@H](C)O)[C@@H](C)O)[C@@H](C)CC)C(=O)N[C@@H](CCC(=O)O)C(=O)N[C@@H](CCC(=O)O)C(=O)N[C@@H](CCC(=O)O)C(=O)N[C@@H](C)C(=O)N[C@H](C(=O)N[C@@H](CCCCN)C(=O)N[C@@H](CC(C)C)C(=O)N[C@@H](Cc1ccccc1)C(=O)N[C@H](C(=O)N[C@@H](CCC(=O)O)C(=O)N[C@@H](Cc1c[nH]c2ccccc12)C(=O)N[C@@H](CC(C)C)C(=O)N[C@@H](CCCCN)C(=O)N[C@@H](C)C(=O)NCC(=O)NCC(=O)N1CCC[C@H]1C(=O)N[C@@H](CO)C(=O)N[C@@H](CO)C(=O)NCC(=O)N[C@@H](C)C(=O)N1CCC[C@H]1C(=O)N1CCC[C@H]1C(=O)N1CCC[C@H]1C(=O)N[C@@H](CO)C(N)=O)[C@@H](C)CC)C(C)C)C(=O)O

Columns and labels:
Assay in all cases: cell-based or functional assay
human GLP-1 receptor = human GLP-1 receptor (human, UniProt P43220 24-463)
human GIP receptor = target: T1, human GIP receptor
human glucagon receptor = human glucagon receptor (human, UniProt P47871 26-477)
human glucagon receptor, sequence (P47871 26-477): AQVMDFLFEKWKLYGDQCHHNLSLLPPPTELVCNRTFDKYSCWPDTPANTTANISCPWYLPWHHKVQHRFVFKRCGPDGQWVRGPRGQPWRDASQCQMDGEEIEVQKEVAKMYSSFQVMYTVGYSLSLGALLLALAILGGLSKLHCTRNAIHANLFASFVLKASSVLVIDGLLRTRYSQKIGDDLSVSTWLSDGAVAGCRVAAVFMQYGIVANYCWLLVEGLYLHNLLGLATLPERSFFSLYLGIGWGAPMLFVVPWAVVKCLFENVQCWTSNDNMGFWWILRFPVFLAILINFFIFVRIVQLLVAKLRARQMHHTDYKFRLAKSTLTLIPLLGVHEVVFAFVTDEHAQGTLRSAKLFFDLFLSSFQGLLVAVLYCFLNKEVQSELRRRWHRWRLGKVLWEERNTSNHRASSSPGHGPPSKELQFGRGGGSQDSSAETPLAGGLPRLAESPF

Binder | EC50 hGLP-1 R (human GLP-1 receptor) | EC50 hGIP R (human GIP receptor) | EC50 hGLUC R (human glucagon receptor)
B1 | 0.006 nM | 0.0119 nM | 1.67 nM
B2 | 0.0076 nM | 0.0067 nM | > 1000 nM
